Reference: patent US12662531B2, “CLDN18.2 antibody and use thereof” (FUTUREGEN BIOPHARMACEUTICAL (BEIJING) CO., LTD., priority 2019, dated 2026)

Legend:
[1] = biological target: T1, CLDN18.2 (CT26-CLDN18.2 cells) (Homo sapiens, UniProt P56856); test: Flow cytometry binding of recombinant antibodies to CT26-CLDN18.2 cells; conditions: 4° C. 1 hour
T1 construct: expressed in transfected cells; host or cells: CT26 cells (mouse), lentiviral transduction, puromycin selection
Protocol: Binding activities of the recombinant monoclonal antibodies to CLDN18.2 were determined. Specifically, well-grown cell lines stably expressing CT26-CLDN18.2 were taken. The cells were washed with PBS, mixed with the fold-diluted antibody and incubated at 4° C. for 1 hour. The cells were washed once with flow cytometry buffer, PE-labeled anti-human IgG antibody was added, and incubated at 4° C. for 30 minutes. The supernatant was removed by centrifugation, and after the cells were washed with flow cytometry buffer, the fluorescence intensity on the surface of the cells was tested by flow cytometry. The relative binding activity of each antibody was calculated using the average fluorescence intensity.
The binding activity of the defucosylated antibodies 18.2-A1F, 18.2-A3F and 18.2-A4F to CLDN18.2 as compared to the binding activity of 18.2-A1, 18.2-A3 and 18.2-A4 to CLDN18.2 was tested by flow cytometry, the method of which is as described in Example 5, and the experimental results are shown in FIG. 7.

control CT26 cell line = test: Flow cytometry binding to control CT26 cell line; conditions: results not shown
[2] = biological target: T2, CLDN18.2 (CLDN18.2-Flag 293t cells) (Homo sapiens, UniProt P56856); test: Binding specificity, 293t cells expressing CLDN18.2-Flag, flow cytometry; conditions: 10 μg/ml antibody, 4° C. 1 hour
T2 construct: expressed in transfected cells; host or cells: 293t cells, transient transfection
Text: (§1) Human Claudin18 proteins include two homologues, i.e., CLDN18.1 and CLDN18.2, which share exons other than exon 1, and the exon 1 sequences of CLDN18.1 and CLDN18.2 are highly similar with only 8 different amino acids in the first extracellular region. The exon 1 of CLDN18.1 and the exon 1 of CLDN18.2 are specifically expressed in different tissues driven by different promoters. Among them, CLDN18.1 is specifically expressed in lung epithelial cells, while CLDN18.2 is specifically expressed in gastric epithelial cells. To identify the specificity of the screened CLDN18.2 antibodies, binding of the antibodies to CLDN18.1 and CLDN18.2 was tested.
(§2) Specifically, well-grown 293t cells were taken to transiently express flag-tagged CLDN18.1 (CLDN18.1-Flag) or CLDN18.2 (CLDN18.2-Flag). 48 hours after transfection, the cells were digested with trypsin. After washed with flow cytometry buffer, the cells were mixed with 10 μg/ml of isotype control antibody or one of the above five CLDN18.2 antibodies in 200 μl of flow cytometry buffer, and were incubated at 4° C. for 1 hour. Subsequently, the cells were washed once with flow cytometry buffer, PE-labeled anti-human IgG antibody was added, and incubated at 4° C. for 30 min. The supernatant was removed by centrifugation, wash was performed twice with flow cytometry buffer, and the cells were fixed in a fix solution containing 1% paraformaldehyde and 0.5% triton-X100 and the cell membrane was permeabilized. Subsequently, the cells were incubated with APC-labeled anti-flag antibody for 30 min and tested by flow cytometry.

[3] = biological target: T3, CLDN18.1 (CLDN18.1-Flag 293t cells) (Homo sapiens, UniProt P56856); test: Binding specificity, 293t cells expressing CLDN18.1-Flag, flow cytometry; conditions: 10 μg/ml antibody, 4° C. 1 hour
T3 construct: expressed in transfected cells; host or cells: 293t cells, transient transfection
Text: as §1, §2

[4] = system: SNU601 cells expressing CLDN18.2; test: Endocytosis of antibody after binding to SNU601 cells stably expressing CLDN18.2; assay type: cell-based; conditions: 10 μg/ml, 4 h
Protocol: It has been reported that the binding of some antibodies to cell surface antigens can cause endocytosis of antigen and antibody complexes, thereby reducing the expression level of the cell surface antigens and accelerating antibody metabolism in vivo (Schrama D et al., 2006, Nat Rev Drug Discov). In this example, the ability of antibodies 18.2-A1, 18.2-A3, 18.2-A4 and 18.2-A6 to be endocytosed by cells was tested in SNU601 cells stably expressing CLDN18.2. […] Subsequently, they were washed at 4° C. and stained with PE-labeled anti-human IgG antibody. After fixation with 4% formalin, antibody binding on the cell surface was tested by flow cytometry.

FcγRIIIa = test: Biacore binding to FcγRIIIa; conditions: FcγRIIIa captured as ligand, antibody as analyte
Protocol: Subsequently, the binding activity of the CLDN18.2 antibody and its defucosylated form to FcγRIIIa was tested using the Biacore method. Specifically, FcγRIIIa (Sino Biological Inc, 10389-H08C1) was diluted to 0.1 μg/ml in HBS-EP buffer as a ligand, and 18.2-A1F and 18.2-A1 antibody samples were diluted to 360 μg/ml, 120 μg/ml, 40 μg/ml, 13.3 μg/ml and 4.4 μg/ml respectively as analytes. The ligand FcγRIIIa was immobilized using an indirect capture method. First, 50 μg/ml of Anti-His IgG was covalently bound to the surface of CMS chip through amino coupling, followed by the binding of the ligand and analyte. Affinity analysis experiments were performed in Biacore Wizard mode using a multi-cycle approach with FcγRIIIa as the ligand and 18.2-A1F and 18.2-A1 antibody samples as analytes.
The test for each sample includes three Start up, one zero concentration control, five gradient concentration samples and one replicate sample (reference). The chip was regenerated with 10 mM glycine-HCl, pH 1.5 regeneration solution after each cycle. Each concentration cycle of the analyte was set with a capture time of 60 s and a flow rate of the ligand solution of 10 μl/min; a binding time of ligand and analyte of 180 s, and a flow rate of the analyte solution of 30 μl/min; and a dissociation time of 180 s. The CMS chip coupled with Anti-His IgG was placed in the slot for detection and analysis. […]

[5] = system: human FcγRIIIa (V158) on FcγRIIIa-Jurkat cells; test: Flow cytometry binding to FcγRIIIa-Jurkat cells
Text: We next further tested the binding activity of the CLDN18.2 antibodies and their defucosylated forms to FcγRIIIa expressed on the cell surface. Specifically, the human FcγRIIIa (V158, high FC binding subtype) gene was cloned into a mammalian cell expression vector carrying a puromycin screening marker and transfected into a Jurkat cell line. A cell line stably expressing FcγRIIIa (FcγRIIIa-Jurkat) was screened with puromycin. In addition, NK92MI is a human NK cell line that naturally expresses the FcγRIIIa receptor (F158, low FC binding subtype). The binding ability of the CLDN18.2 antibodies and their defucosylated forms to FcγRIIIa expressed on the surface of FcγRIIIa-jurkat cells and NK92MI cells was tested by flow cytometry. The specific flow cytometry assay is described with reference to Example 6.

[6] = system: untransfected Jurkat cells; test: Flow cytometry binding to untransfected Jurkat cells; conditions: results not shown

B1: 18.2-A1: recombinant monoclonal CLDN18.2 antibody, VH SEQ ID NO: 1, VL SEQ ID NO: 6 (antibody, V domains shown)
VH: EVQLVQSGAEVKKPGASVKVSCKASGYTFTSSWLIWVRQAPGQGLEWIGTIVPSDSYTNYNQKFKDRATLTVDKSTSTAYMELSSLRSEDTAVYYCTRFRTGNSFDYWGQGTLVTVSS
VL: DIVMTQSPDSLSVGLGERATINCKSSQSVLNSGNQKNYLTWYQQKPGQPPKLLIYWAVARQSGVPDRFSGSGSGTDFTLTISSLQAEDVAVYYCQNSIAYPFTFGQGTKVEIK
modifications: 18.2-A1 VH; 18.2-A1 VL
[1]
  binding to CT26 cell line expressing CLDN18.2: able to bind well
Control CT26 cell line
  binding to control CT26 cell line: did not bind
[2]
  binding to CLDN18.2-flag transfected positive 293t cells: able to bind well
[3]
  binding to CLDN18.1-positive cells: none of the six antibodies bound
[4]; 4° C.
  binding to SNU601 cells expressing CLDN18.2 under 4° C. incubation: bound well
[4]; 37° C.
  antibody staining/binding on the cell surface under 37° C. incubation: still bound well
  endocytosis by cells under 37° C. incubation: did not undergo significant endocytosis
FcγRIIIa
  binding to FcγRIIIa (Biacore): able to bind to FcγRIIIa effectively
[5]
  binding to FcγRIIIa-jurkat cells: able to bind
[6]
  binding to untransfected Jurkat cells: not able to bind
